Measurements taken from patent publication US20040208880A1 (University of Texas, published 2004).

T1: estrogen receptor alpha (ER), full-length (UniProt P03372 1-595)
T1 construct: Used as in vitro translated 35S-labeled full-length ER and as the endogenous ER of human cell lines (Ishikawa, MCF-7 derivatives); also called ERα; ERá
T1 sequence (looked up): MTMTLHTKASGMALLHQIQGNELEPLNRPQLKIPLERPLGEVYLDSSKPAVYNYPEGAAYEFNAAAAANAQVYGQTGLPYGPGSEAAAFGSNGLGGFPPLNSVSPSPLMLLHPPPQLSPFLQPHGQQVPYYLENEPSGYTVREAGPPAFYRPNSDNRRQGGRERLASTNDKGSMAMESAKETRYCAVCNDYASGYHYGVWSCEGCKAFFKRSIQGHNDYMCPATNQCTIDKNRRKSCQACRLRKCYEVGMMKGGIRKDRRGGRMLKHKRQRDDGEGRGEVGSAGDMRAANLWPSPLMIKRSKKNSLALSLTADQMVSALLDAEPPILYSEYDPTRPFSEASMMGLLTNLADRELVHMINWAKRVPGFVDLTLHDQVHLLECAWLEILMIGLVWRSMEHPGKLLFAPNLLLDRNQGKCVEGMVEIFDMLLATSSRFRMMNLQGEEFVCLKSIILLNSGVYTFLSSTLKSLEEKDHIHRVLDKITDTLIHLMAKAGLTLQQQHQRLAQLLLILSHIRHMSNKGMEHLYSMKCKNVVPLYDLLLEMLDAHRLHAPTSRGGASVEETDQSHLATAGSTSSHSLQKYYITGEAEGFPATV


Experiments:
[1] = molecular target: T2, dynein light chain-1/protein inhibitor of nitric oxide synthase (DLC1/PIN), amino acids 1-89 (human, UniProt P63167 1-89); test: GST pull-down with in vitro translated DLC1/PIN
T2 construct: Used both as in vitro translated 35S-labeled protein (aa 1-89) and as the endogenous protein of human cell lines (MCF-7, Ishikawa)

[2] = molecular target: T1, estrogen receptor alpha (ER), …; test: GST pull-down with in vitro translated 35S-ER
[3] = molecular target: T2, dynein light chain-1/protein inhibitor …; test: immunoprecipitation with HA antibody from Tet on-HA-Pak1-T423E MCF-7 cells, immunoblot
[4] = molecular target: T1, estrogen receptor alpha (ER), …; test: immunoprecipitation with anti-Pak1 Ab, immunoblot with ERα Ab

Binder | binding result [1] | further results
GST-Pak1 Cdc42/Rac-interacting (CRIB) domain (other, not shown: glutathione-S-transferase (GST) fusion partner) ISLPSDFEHTIHVGFDAVTGEFTGMPEQWARLLQTSNITKSEQKKNPQAVLDVLEFYNSKKTSNSQKYMSFTDKS | no binding | 
GST-Pak1 auto inhibitory domain (other, not shown: glutathione-S-transferase (GST) fusion partner) RFYRSILPGDKTNKKKEKERPEISLPSDFEHTIHVGFDAVTGEFTGMPEQWARLLQTSNITKSEQKKNPQAVLDVLEFYN | no binding | 
GST-Pak1 N-terminal domain (amino acids 1-132) (other, not shown: glutathione-S-transferase (GST) fusion partner) MSNNGLDIQDKPPAPPMRNTSTMIGVGSKDAGTLNHGSKPLPPNPEEKKKKDRFYRSILPGDKTNKKKEKERPEISLPSDFEHTIHVGFDAVTGEFTGMPEQWARLLQTSNITKSEQKKNPQAVLDVLEFYN | no binding | 
GST-DLC1 deletion construct lacking the C-terminal amino acids 67-89 (other, not shown: GST fusion partner at the N end and any linker to it) MCDRKAVIKNADMSEEMQQDSVECATQALEKYNIEKDIAAHIKKEFDKKYNPTWHCIVGRNFGSYV |  | binding result [2]: no binding
HA-tagged T423E Pak1 (catalytically active Pak1) (enzyme, Expressed in MCF-7 cells under a Tet-on promoter; also called HA-Pak1-T423E; not shown: HA tag) MSNNGLDIQDKPPAPPMRNTSTMIGVGSKDAGTLNHGSKPLPPNPEEKKKKDRFYRSILPGDKTNKKKEKERPEISLPSDFEHTIHVGFDAVTGEFTGMPEQWARLLQTSNITKSEQKKNPQAVLDVLEFYNSKKTSNSQKYMSFTDKSAEDYNSSNALNVKAVSETPAVPPVSEDEDDDDDDATPPPVIAPRPEHTKSVYTRSVIEPLPVTPTRDVATSPISPTENNTTPPDALTRNTEKQKKKPKMSDEEILEKLRSIVSVGDPKKKYTRFEKIGQGASGTVYTAMDVATGQEVAIKQMNLQQQPKKELIINEILVMRENKNPNIVNYLDSYLVGDELWVVMEYLAGGSLTDVVTETCMDEGQIAAVCRECLQALEFLHSNQVIHRDIKSDNILLGMDGSVKLTDFGFCAQITPEQSKRSEMVGTPYWMAPEVVTRKAYGPKVDIWSLGIMAIEMIEGEPPYLNENPLRALYLIATNGTPELQNPEKLSAIFRDFLNRCLDMDVEKRGSAKELLQHQFLKIAKPLSSLTPLIAAAKEATKNNH |  | binding result [3]: binds
p21-activated protein kinase 1 (Pak1), full-length, amino acids 1-545 (enzyme, Used both as in vitro translated 35S-labeled full-length protein and as the endogenous protein of human cell lines) MSNNGLDIQDKPPAPPMRNTSTMIGVGSKDAGTLNHGSKPLPPNPEEKKKKDRFYRSILPGDKTNKKKEKERPEISLPSDFEHTIHVGFDAVTGEFTGMPEQWARLLQTSNITKSEQKKNPQAVLDVLEFYNSKKTSNSQKYMSFTDKSAEDYNSSNALNVKAVSETPAVPPVSEDEDDDDDDATPPPVIAPRPEHTKSVYTRSVIEPLPVTPTRDVATSPISPTENNTTPPDALTRNTEKQKKKPKMSDEEILEKLRSIVSVGDPKKKYTRFEKIGQGASGTVYTAMDVATGQEVAIKQMNLQQQPKKELIINEILVMRENKNPNIVNYLDSYLVGDELWVVMEYLAGGSLTDVVTETCMDEGQIAAVCRECLQALEFLHSNQVIHRDIKSDNILLGMDGSVKLTDFGFCAQITPEQSKRSTMVGTPYWMAPEVVTRKAYGPKVDIWSLGIMAIEMIEGEPPYLNENPLRALYLIATNGTPELQNPEKLSAIFRDFLNRCLDMDVEKRGSAKELLQHQFLKIAKPLSSLTPLIAAAKEATKNNH |  | binding result [4]: binds
